This assay deals with T1, His-tagged full-length ATF4 (mouse, UniProt Q06507 1-349).
T1 sequence (looked up): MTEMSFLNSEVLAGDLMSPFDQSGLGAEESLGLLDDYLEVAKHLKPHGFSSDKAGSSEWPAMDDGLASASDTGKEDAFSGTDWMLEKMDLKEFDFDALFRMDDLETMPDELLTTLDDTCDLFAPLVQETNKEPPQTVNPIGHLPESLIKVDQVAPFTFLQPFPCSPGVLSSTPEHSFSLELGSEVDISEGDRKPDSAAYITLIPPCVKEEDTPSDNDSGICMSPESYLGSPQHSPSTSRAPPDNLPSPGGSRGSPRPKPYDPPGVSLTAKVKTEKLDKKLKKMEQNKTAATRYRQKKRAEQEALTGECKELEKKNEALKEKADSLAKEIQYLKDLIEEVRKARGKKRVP
Description: pull-down.

B1: GST-Hop2^81−147 (domain or fragment, mouse, UniProt O35047 81-147, looked up)
chain: VSDADLHGLDASIVALTAKVQSLQQSCRHMEAELKELTSALTTPEMQKEIQELKKECAQYTERLKNI
Take B1: the binding result was “binds”.

The values above are taken from publication PMC7422940 (Journal of bone and mineral research : the official journal …, 2019).
